Reference: patent US20120244162A1 (MICROMET, published 2012)

Tests used:
[1] = target: T1, macaque CD3 on the macaque T cell line 4119LnPx (macaque, UniProt Q95LI5 22-198); assay: FACS, 4119LnPx
T1 construct: whole, on cells; Native CD3 complex on 4119LnPx cells; also called cynomolgus CD3

[2] = target: T2, 1-27 CD3-Fc (N-terminal amino acids 1-27 of the mature human CD3 epsilon chain fused to the hinge and Fc … (human)); assay: ELISA, periplasmic scFv on captured 1-27 CD3-Fc
T2 construct: also called 1-27 CD3ε-Fc; human CD3 epsilon (aa 1-27)-Fc fusion protein

swine 1-27 CD3ε-EpCAM = target: T3, swine 1-27 CD3ε-EpCAM (Sus scrofa CD3 epsilon 1-27, cynomolgus …); assay: FACS on transfected 293-HEK cells
T3 construct: Negative control construct on 293-HEK cells; also called 1-27 CD3-EpCAM comprising the swine 27 mer
T3 chain: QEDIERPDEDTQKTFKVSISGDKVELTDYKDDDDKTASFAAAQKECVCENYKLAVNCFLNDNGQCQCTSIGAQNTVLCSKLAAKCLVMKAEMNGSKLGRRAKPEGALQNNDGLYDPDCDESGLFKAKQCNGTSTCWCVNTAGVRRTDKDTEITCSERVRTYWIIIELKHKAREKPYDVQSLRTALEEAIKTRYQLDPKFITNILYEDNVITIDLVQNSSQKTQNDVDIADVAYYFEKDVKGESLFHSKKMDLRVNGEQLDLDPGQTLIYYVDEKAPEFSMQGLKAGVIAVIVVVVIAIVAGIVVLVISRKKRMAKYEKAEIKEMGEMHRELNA

human 1-27 CD3ε-EpCAM = target: T4, human 1-27 CD3ε-EpCAM (human CD3 epsilon 1-27, cynomolgus EpCAM); assay: FACS on transfected 293-HEK cells, periplasmic scFv
T4 construct: Transmembrane fusion: CD3 epsilon 1-27, Flag tag, mature cynomolgus EpCAM; on transiently transfected 293-HEK cells; also called 1-27 CD3-EpCAM comprising the human 27 mer
T4 chain: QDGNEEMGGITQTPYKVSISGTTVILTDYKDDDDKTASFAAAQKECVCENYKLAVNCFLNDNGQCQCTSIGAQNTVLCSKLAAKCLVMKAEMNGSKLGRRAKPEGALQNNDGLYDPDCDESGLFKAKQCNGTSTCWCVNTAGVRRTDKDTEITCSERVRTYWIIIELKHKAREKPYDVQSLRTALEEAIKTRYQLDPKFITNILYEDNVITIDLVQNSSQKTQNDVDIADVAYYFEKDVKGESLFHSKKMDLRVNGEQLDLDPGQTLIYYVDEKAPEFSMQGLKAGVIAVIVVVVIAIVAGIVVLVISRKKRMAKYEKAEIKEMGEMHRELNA

tamarin 1-27 CD3ε-EpCAM = target: T5, tamarin 1-27 CD3ε-EpCAM (Saguinus oedipus CD3 epsilon 1-27, …); assay: as above
T5 construct: On transiently transfected 293-HEK cells; also called 1-27 CD3-EpCAM comprising the tamarin 27 mer
T5 chain: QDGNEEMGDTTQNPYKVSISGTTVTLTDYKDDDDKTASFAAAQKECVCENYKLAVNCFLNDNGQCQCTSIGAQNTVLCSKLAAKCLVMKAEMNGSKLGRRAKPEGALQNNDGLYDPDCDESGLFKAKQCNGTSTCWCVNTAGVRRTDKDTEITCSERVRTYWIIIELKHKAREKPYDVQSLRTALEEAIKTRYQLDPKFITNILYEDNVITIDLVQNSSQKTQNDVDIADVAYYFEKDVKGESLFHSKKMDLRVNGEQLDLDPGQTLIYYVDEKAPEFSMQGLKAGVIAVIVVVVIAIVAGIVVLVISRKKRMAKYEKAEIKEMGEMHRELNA

[3] = target: T6, squirrel monkey 1-27 CD3ε-EpCAM (Saimiri sciureus CD3 epsilon 1-27, …); assay: as above
T6 construct: also called 1-27 CD3-EpCAM comprising the squirrel monkey 27 mer
T6 chain: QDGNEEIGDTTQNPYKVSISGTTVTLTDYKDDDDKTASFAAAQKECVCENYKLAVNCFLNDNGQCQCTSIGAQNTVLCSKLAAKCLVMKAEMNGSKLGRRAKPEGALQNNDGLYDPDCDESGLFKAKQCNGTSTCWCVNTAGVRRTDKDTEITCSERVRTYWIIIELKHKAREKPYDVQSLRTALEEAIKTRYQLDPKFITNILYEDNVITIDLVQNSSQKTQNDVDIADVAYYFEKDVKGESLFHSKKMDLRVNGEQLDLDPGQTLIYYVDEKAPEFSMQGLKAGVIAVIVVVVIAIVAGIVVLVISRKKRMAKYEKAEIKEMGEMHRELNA

marmoset 1-27 CD3ε-EpCAM = target: T7, marmoset 1-27 CD3ε-EpCAM (Callithrix jacchus CD3 epsilon 1-27, …); assay: as above
T7 construct: On transiently transfected 293-HEK cells; also called 1-27 CD3-EpCAM comprising the marmoset 27 mer
T7 chain: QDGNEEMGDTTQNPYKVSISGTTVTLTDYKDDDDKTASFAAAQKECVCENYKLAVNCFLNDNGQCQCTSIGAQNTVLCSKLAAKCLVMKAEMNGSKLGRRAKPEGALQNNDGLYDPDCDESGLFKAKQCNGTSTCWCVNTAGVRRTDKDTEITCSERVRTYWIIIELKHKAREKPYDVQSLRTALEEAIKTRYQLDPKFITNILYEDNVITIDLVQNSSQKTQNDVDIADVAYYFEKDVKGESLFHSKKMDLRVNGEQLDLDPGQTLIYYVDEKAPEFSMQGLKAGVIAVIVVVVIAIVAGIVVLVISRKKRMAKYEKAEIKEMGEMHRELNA

[4] = target: T8, human CD3 epsilon alanine mutant, position 2 (D2A) (human, UniProt P07766 22-207); assay: alanine scanning, FACS on EL4 transfectants
T8 construct: On transfected EL4 cells
T8 sequence (P07766 other isoform, or with tags, fused parts or gaps limits assumed, stated change not applied): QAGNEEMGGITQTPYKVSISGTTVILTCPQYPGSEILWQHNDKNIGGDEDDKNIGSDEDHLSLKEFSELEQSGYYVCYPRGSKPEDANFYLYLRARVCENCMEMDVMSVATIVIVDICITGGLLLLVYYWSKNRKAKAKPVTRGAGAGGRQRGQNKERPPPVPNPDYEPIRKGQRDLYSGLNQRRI

[5] = target: T9, human CD3 epsilon alanine mutant, position 3 (G3A) (human, UniProt P07766 22-207); assay: alanine scanning, FACS on EL4 transfectants
T9 construct: On transfected EL4 cells
T9 sequence (P07766 other isoform, or with tags, fused parts or gaps limits assumed, stated change not applied): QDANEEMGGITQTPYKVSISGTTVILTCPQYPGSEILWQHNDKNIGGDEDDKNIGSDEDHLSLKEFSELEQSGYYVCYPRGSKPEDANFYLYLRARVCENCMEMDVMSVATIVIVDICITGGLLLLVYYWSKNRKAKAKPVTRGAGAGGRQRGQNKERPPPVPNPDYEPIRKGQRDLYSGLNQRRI

[6] = target: T10, human CD3 epsilon alanine mutant, position 1 (Q1A) (human, UniProt P07766 23-207); assay: alanine scanning, FACS on EL4 transfectants
T10 construct: On transfected EL4 cells; positions count on the mature chain
T10 sequence (P07766 other isoform, or with tags, fused parts or gaps, stated change not applied): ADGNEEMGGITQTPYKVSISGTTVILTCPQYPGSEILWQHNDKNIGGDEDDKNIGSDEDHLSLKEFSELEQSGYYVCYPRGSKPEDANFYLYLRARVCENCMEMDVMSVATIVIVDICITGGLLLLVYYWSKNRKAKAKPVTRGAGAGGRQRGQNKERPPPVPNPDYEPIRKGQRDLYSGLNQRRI

[7] = target: T11, human CD3 epsilon alanine mutant, position 5 (E5A) (human, UniProt P07766 22-207); assay: alanine scanning, FACS on EL4 transfectants
T11 construct: On transfected EL4 cells
T11 sequence (P07766 other isoform, or with tags, fused parts or gaps limits assumed, stated change not applied): as the sequence (P07766 other isoform, or with tags, fused parts or gaps, stated change not applied) above, with A1Q, E5A counted along it

[8] = target: T2, 1-27 CD3-Fc (N-terminal amino acids …); assay: SPR (Biacore 2000), 1-27 CD3-Fc coupled to CM5 chip, analyte 5 µg/ml

T1 sequence (Q95LI5 22-198): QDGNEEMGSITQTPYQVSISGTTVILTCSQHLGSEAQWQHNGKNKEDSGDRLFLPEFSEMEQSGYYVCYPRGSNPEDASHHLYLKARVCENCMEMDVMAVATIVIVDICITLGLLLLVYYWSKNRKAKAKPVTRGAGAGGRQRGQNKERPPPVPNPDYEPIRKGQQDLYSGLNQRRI

B1: MCSP-G4 HLP × E2M HLP (bispecific antibody)
chain: QVQLVQSGAEVKRPGASMKVSCKASGYTFTNYYIHWVRQAPGQGLEWMGWINPNSGATNYAQKFQGRVTMTRDTSTSTVYMELSSLRSEDTAVYYCAKSWVSWFASWGQGTLVTVSSGGGGSGGGGSGGGGSELVMTQSPDSLAVSLGERATINCKSSQSVLNSSNNRNYLAWYQQKPGQPPKLLIYWASTRESGVPDRFSGSGSGTDFTLTISGLQAEDVAVYYCQQHYSTPFTFGPGTKVDIKSGGGGSEVQLLESGGGLVQPGGSLKLSCAASGFTFNGYAMNWVRQAPGKGLEWVARIRSKYNNYATYYADSVKERFTISRDDSKNTAYLQMNNLKTEDTAVYYCVRHRNFGNSYLSWFAYWGQGTLVTVSSGGGGSGGGGSGGGGSELVVTQEPSLTVSPGGTVTLTCRSSTGAVTSGYYPNWVQQKPGQAPRGLIGATDMRPSGTPARFSGSLLGGKAALTLSGVQPEDEAEYYCALWYSNRWVFGGGTKLTVLHHHHHH
B1: binds [1].

B2: A2J HLP single-chain antibody (scFv)
scFv: EVQLLESGGGLVQPGGSLKLSCAASGFTFNVYAMNWVRQAPGKGLEWVARIRSKYNNYATYYADSVKKRFTISRDDSKNTAYLQMNNLKTEDTAVYYCVRHGNFGNSYLSWWAYWGQGTLVTVSSGGGGSGGGGSGGGGSELVVTQEPSLTVSPGGTVTLTCRSSTGAVTSGYYPNWVQQKPGQAPRGLIGATDMRPSGTPARFSGSLLGGKAALTLSGVQPEDEAEYYCALWYSNRWVFGGGTKLTVLTGDYKDDDDKHHHHHH
notes: Crude periplasmic preparation; also called VH-VL-P of A2J
B2: binds [2].

B3: E2M HLP single-chain antibody (scFv)
scFv: EVQLLESGGGLVQPGGSLKLSCAASGFTFNGYAMNWVRQAPGKGLEWVARIRSKYNNYATYYADSVKERFTISRDDSKNTAYLQMNNLKTEDTAVYYCVRHRNFGNSYLSWFAYWGQGTLVTVSSGGGGSGGGGSGGGGSELVVTQEPSLTVSPGGTVTLTCRSSTGAVTSGYYPNWVQQKPGQAPRGLIGATDMRPSGTPARFSGSLLGGKAALTLSGVQPEDEAEYYCALWYSNRWVFGGGTKLTVLTGDYKDDDDKHHHHHH
notes: Crude periplasmic preparation; also called VH-VL-P of E2M
B3: binds [2]; no binding (swine 1-27 CD3ε-EpCAM); binds (human 1-27 CD3ε-EpCAM). B3: binds (tamarin 1-27 CD3ε-EpCAM); binds [3]; binds (marmoset 1-27 CD3ε-EpCAM).

B4: A2J HLP chimeric IgG antibody (murine IgG1 and human lambda constant regions) (antibody, V domains shown)
VH: EVQLLESGGGLVQPGGSLKLSCAASGFTFNVYAMNWVRQAPGKGLEWVARIRSKYNNYATYYADSVKKRFTISRDDSKNTAYLQMNNLKTEDTAVYYCVRHGNFGNSYLSWWAYWGQGTLVTVSS
VL: ELVVTQEPSLTVSPGGTVTLTCRSSTGAVTSGYYPNWVQQKPGQAPRGLIGATDMRPSGTPARFSGSLLGGKAALTLSGVQPEDEAEYYCALWYSNRWVFGGGTKLTVLG
notes: also called IgG antibody A2J HLP
B4: no binding [4]; no binding [5]; no binding [6]. B4: no binding [7].

B5: E2M HLP chimeric IgG antibody (murine IgG1 and human lambda constant regions) (antibody, V domains shown)
VH: EVQLLESGGGLVQPGGSLKLSCAASGFTFNGYAMNWVRQAPGKGLEWVARIRSKYNNYATYYADSVKERFTISRDDSKNTAYLQMNNLKTEDTAVYYCVRHRNFGNSYLSWFAYWGQGTLVTVSS
VL: ELVVTQEPSLTVSPGGTVTLTCRSSTGAVTSGYYPNWVQQKPGQAPRGLIGATDMRPSGTPARFSGSLLGGKAALTLSGVQPEDEAEYYCALWYSNRWVFGGGTKLTVLG
notes: also called IgG antibody E2M HLP
B5: no binding [4]; no binding [5]; no binding [6]. B5: no binding [7].

B6: EGFR-21-63 LH × A2J HLP (bispecific antibody)
chain: DIVLTQSPASLPVSLGQRATISCRASQSVSSSTYSYIHWYQQKPGQPPKLLITYASNLESGVPARFSGSGSGTDFTLDIHPVEEDDSSTYYCQHSWEIPFTFGSGTKLEIKGGGGSGGGGSGGGGSQVQLQQSGPDLVKPGASVKMSCKASGHTFTDCVIIWVKQRAGQGLEWIGQIYPGTGRSYYNEIFKGKATLTADKSSNTVHIQLSSLTSEDSAVYFCALSTLIHGTWFSYWGQGTLVTVSSGGGGSEVQLLESGGGLVQPGGSLKLSCAASGFTFNVYAMNWVRQAPGKGLEWVARIRSKYNNYATYYADSVKKRFTISRDDSKNTAYLQMNNLKTEDTAVYYCVRHGNFGNSYLSWWAYWGQGTLVTVSSGGGGSGGGGSGGGGSELVVTQEPSLTVSPGGTVTLTCRSSTGAVTSGYYPNWVQQKPGQAPRGLIGATDMRPSGTPARFSGSLLGGKAALTLSGVQPEDEAEYYCALWYSNRWVFGGGTKLTVLHHHHHH
notes: Bispecific single chain antibody; also called EGFR LH × A2J HLP
B6 was tested, and the Kd [8] was 249 nM.

B7: EGFR-21-63 LH × E2M HLP (bispecific antibody)
chain: DIVLTQSPASLPVSLGQRATISCRASQSVSSSTYSYIHWYQQKPGQPPKLLITYASNLESGVPARFSGSGSGTDFTLDIHPVEEDDSSTYYCQHSWEIPFTFGSGTKLEIKGGGGSGGGGSGGGGSQVQLQQSGPDLVKPGASVKMSCKASGHTFTDCVIIWVKQRAGQGLEWIGQIYPGTGRSYYNEIFKGKATLTADKSSNTVHIQLSSLTSEDSAVYFCALSTLIHGTWFSYWGQGTLVTVSSGGGGSEVQLLESGGGLVQPGGSLKLSCAASGFTFNGYAMNWVRQAPGKGLEWVARIRSKYNNYATYYADSVKERFTISRDDSKNTAYLQMNNLKTEDTAVYYCVRHRNFGNSYLSWFAYWGQGTLVTVSSGGGGSGGGGSGGGGSELVVTQEPSLTVSPGGTVTLTCRSSTGAVTSGYYPNWVQQKPGQAPRGLIGATDMRPSGTPARFSGSLLGGKAALTLSGVQPEDEAEYYCALWYSNRWVFGGGTKLTVLHHHHHH
notes: Bispecific single chain antibody; also called EGFR LH × E2M HLP
For B7, the Kd [8] was 2460 nM.
